Paper PMC7727368

Molecular target: Fasciola hepatica profilin (FhProfilin), recombinant (Fasciola hepatica)
Test: SEC; Superdex S75 16/60 in TBS (10 mM Tris-HCl, 300 mM NaCl, pH 8.0), 1 ml/min; elution volume compared with proteins of known molecular weight

- stoichiometry N: 2
Substance: Fasciola hepatica profilin (FhProfilin), recombinant (natural protein)
